{"source": "patent US10723771B2", "about": "“Modified microorganisms expressing SagA as anti-infective agents, probiotics and food components” (priority 2015, dated 2020)", "molecules": {"B1": {"name": "SagA: E. faecium secreted antigen A, NlpC/p60 peptidoglycan hydrolase, SEQ ID NO:1, purified His6-tagged (protein, listed as Enterococcus faecium)", "chain": "MKKSLISAVMVCSMTLTAVASPIAAAADDFDSQIQQQDQKIADLKNQQADAQSQIDALESQVSEINTQAQDLLAKQDTLRQESAQLVKDIADLQERIEKREDTIQKQAREAQVSNTSSNYIDAVLNADSLADAIGRVQAMTTMVKANNDLMEQQKQDKKAVEDKKAENDAKLKELAENQAALESQKGDLLSKQADLNVLKTSLAAEQATAEDKKADLNRQKAEAEAEQARIREQQRLAEQARQQAAQEKAEKEAREQAEAEAQATQASSTAQSSASEESSAAQSSTTEESSSAAQSSTTEESTTAPESSTTEESTTAPESSTTEESTTVPESSTTEESTTVPESSTTEESTTVPESSTTEESTTVPETSTEESTTPAPTTPSTDQSVDPGNSTGSNATNNTTNTTPTPTPSGSVNGAAIVAEAYKYIGTPYVWGGKDPSGFDCSGFTRYVYLQVTGRDIGGWTVPQESAGTKISVSQAKAGDLLFWGSPGGTYHVAIALGGGQYIHAPQPGESVKVGSVQWFAPDFAVSM", "modifications": "His6 tag"}}, "key": {"[1]": {"system": "S. Typhimurium", "assay": "Liquid-treatment pulsed infection assay: C. elegans treated in liquid wells, then infected with S. Typhimurium, survival scored", "format": "in vivo", "conditions": "for Inhibition of S. Typhimurium pathogenesis (C. elegans survival): liquid wells 2 hours before infection, protein 10-20 μg/mL, defined fragments 50 μM, digests 100 μL; for Inhibition of S. Typhimurium pathogenesis (survival) in tol-1(nr2033) animals: tol-1(nr2033) C. elegans, liquid treatment", "source_text": "C. elegans infection assays: For each condition, 3 plates of 30 worms each (total 90 worms) were scored, unless otherwise noted. Mean percent survival and standard deviation of the triplicate plates for a representative experiment are shown for extended data figures. Mean percent survival and statistical comparisons by log rank test after Bonferroni correction for multiple comparisons using OASIS software are shown in the figures. E. faecium refers to strain Com15 unless otherwise noted in the figure legends. Worms were handled using a Leica M60 microscope and imaged using a Leica IC80 HD camera.\nLiquid-treatment pulsed infection assay: Synchronized young adult worms were transferred to 96-well plate wells containing 32% BHI media, culture supernatant, or live cultures. For protein treatments, 10-20 μg/mL of protein in PBS was included in each well. For treatment with peptidoglycan digests, 100 μL of each digest was added to each well. For treatment with defined peptidoglycan fragments, 50 μM of each fragment in a mixture of PBS and water was included in each well. MDP, GlcNAc, and MurNAc were purchased from Sigma-Aldrich. MurNAc-L-Ala was synthesized as described below in Scheme 51. After 2 hours, worms were washed and transferred to lawns of IR715 grown on BHI plates for 1 day. Then, worms were washed and transferred to lawns of OP50 grown on NGM plates (Day 0). Worms were maintained on OP50-NGM plates and survival was scored.\nTreatment of culture supernatants: Proteinase K treatment: Culture supernatant or media was digested with 0.1 mg/mL of proteinase K in the presence of 1 mM CaCl2 for 2 hours at 37° C. Then, 1 mM EGTA was added, and digestions were used in the liquid-treatment pulsed infection assay.\nTrichloroacetic acid precipitation: Culture supernatant or media was precipitated with TCA (final concentration of 10%) overnight at 4° C. Precipitated proteins were pelleted and rinsed 2 times in acetone, then air-dried and resuspended in BHI media before use in the liquid-treatment pulsed infection assay. 10-kDa MWCO column filtration: E. faecium culture supernatant or media was filtered through 10-kDa MWCO columns (Vivaspin GE Healthcare), and the flow-thru was used in the liquid-treatment pulsed infection assay.\n5-kDa MWCO column filtration of E. coli culture supernatants: E. coli BL21-RIL(DE3) expressing SagA-His or AS-His were induced in BHI media instead of LB as described above. Portions of the culture supernatants were filtered through 5-kDa MWCO columns (Vivaspin GE Healthcare), and the unfiltered supernatants, column concentrate, and column flow-thru were used in the liquid-treatment pulsed infection assay.\nPeptidoglycan Digests: 100 μg of E. coli peptidoglycan (Invivogen) was digested with 20 μg lysozyme (Sigma) and 20 μg of SagA-His or AS-His overnight in a mixture of PBS and water at 37° C. Digests were then filtered through 5-kDa MWCO columns (Vivaspin GE Healthcare), and the flow-thru was used in the liquid-treatment pulsed infection assay."}, "[2]": {"system": "S. Typhimurium", "assay": "Colonization and S. Typhimurium infection of mice (weight loss, fecal burden, survival)", "format": "in vivo", "conditions": "MurNAc alone", "method": "Specific pathogen-free (SPF) mice were gavaged with either a single dose of 20 mg streptomycin or a daily dose of AMNV antibiotic cocktail (4 mg ampicillin, 2 mg metronidazole, 4 mg neomycin, and 2 mg vancomycin) for 7-14 days as indicated in the figure legends. Bacterial cultures were washed and resuspended in sterile PBS at 10^9/mL for E. faecium, E. faecalis, and L. plantarum or at 10^7/mL (SPF) or 10^3/mL (GF) for S. Typhimurium. Mice were colonized by gavage with 100 uL of the indicated bacterial suspension 4 hours before infection (for streptomycin-treated mice) or 2-7 days before infection (for AMNV and GF gnotobiotic mono-colonized mice). Colonization was followed by infection with S. Typhimurium by oral gavage at the doses indicated above and in the figure legends. Weight loss was monitored from just before infection, and mice were euthanized when they reached 80% baseline weight or when they appeared hunched or moribund, whichever occurred first. Death was not used as an end-point. Colony-forming units (CFU) in the feces were determined by plating 5 serial dilutions of feces suspended in sterile PBS on selective agars: Salmonella Shigella Agar (BD 211597) for S. Typhimurium, Enterococcosel Agar (BD 212205) for E. faecium and E. facealis, and MRS Agar with 8 ug/mL chloramphenicol for L. plantarum-vector and -SagA. Resulting quantities were normalized to feces weight."}, "[3]": {"system": "E. coli BL21-RIL(DE3)", "assay": "Growth of E. coli in the presence of SagA", "format": "cell-based", "conditions": "LB media + 10 μg/ml protein", "method": "(§1) Growth of E. coli and S. Typhimurium in the presence of SagA: LB media was inoculated with overnight cultures 1:100. Protein was added at 10 μg/mL and volumes were normalized across all conditions with PBS. OD600 was measured at given time points. Growth of OG1RF-sagA: BHI media was inoculated with overnight cultures 1:100. Chloramphenicol was added at 10 μg/mL as indicated. OD600 was measured at given time points."}, "[4]": {"system": "S. Typhimurium", "assay": "Growth of S. Typhimurium in the presence of SagA", "format": "cell-based", "conditions": "LB media + 10 μg/ml protein", "method": "as §1"}, "[5]": {"system": "E. coli BL21-RIL(DE3)", "assay": "Growth (OD600) of E. coli expressing SagA, AS or SagA-SS", "format": "cell-based", "conditions": "IPTG-induced expression in E. coli BL21-RIL(DE3)", "method": "Bacterial growth curves: Growth of E. coli expressing SagA, AS, or SagA-SS: Cultures were grown as described for protein purification, except that OD600 was monitored at given time points using a Spectromax M2e spectrophotometer."}, "[6]": {"assay": "ANTS labeling assay of peptidoglycan digests", "format": "biochemical", "conditions": "purified E. coli peptidoglycan digested with lysozyme and the protein", "method": "E. coli supernatants were prepared by inoculating cultures 1:50 with an overnight culture of E. coli BL21-RIL(DE3) expressing SagA-His6 or AS-His6. Cultures were grown for 2 hours, then induced with 1 mM IPTG, and grown for an additional 2 hours. Enterococcus supernatants were prepared by growing cultures overnight. Cultures were pelleted, and supernatant was filtered through 10 kDa MWCO columns (Millipore Microcon). For peptidoglycan digests, 100 μg of E. coli peptidoglycan was digested with 20 μg lysozyme and 20 μg of SagA-His or AS-His overnight in a mixture of PBS and water at 37° C. Digests were filtered through 10 kDa MWCO columns. Culture supernatants, peptidoglycan digests, and defined peptidoglycan fragments were dried by speed-vac before ANTS labeling. ANTS labeling was using established techniques. 10 μl of ANTS reaction mix was added to each tube of dried material (1:1 mixture of 0.2 M ANTS (in 3:17 acetic acid:water): 1 M NaCNBH3 (in DMSO)). Reactions were incubated overnight at 37° C. 0.5-3.5 μL of the ANTS labeled mixtures were mixed 1:1 with 40% glycerol and samples were separated by native PAGE on a hand-cast 37-40% Tris-glycine acrylamide gel (19:1 polyacrylamide:bisacrylamide, with a 20% acrylamide stack) at 150 V for ˜3 hours or 80 V for ˜6 hours. Empty lanes adjacent to sample lanes were loaded with samples of ANTS labeled Ala-D-γ-Glu-Lys-D-Ala-D-Ala (Sigma). […]"}, "[7]": {"system": "S. Typhimurium", "assay": "Worm CFU measurements, S. Typhimurium", "format": "in vivo, C. elegans", "conditions": "protein-treated infected animals", "method": "Worm CFU measurements: Protocol for CFU measurements was adapted from previous protocol. Briefly, 5-20 worms were rinsed in drops of S buffer, and allowed to crawl free of bacteria on a sterile plate. These worms were then mechanically lysed in PBS using microtubes and pestles (Kimble-Chase). Serial dilutions of worm homogenate were plated on Salmonella-Shigella agar (BD BBL) or Enterococcosel (BD BBL) agar plates, and plates were incubated at 37° C. overnight."}, "[8]": {"system": "SPI-1 type III protein secretion in S. Typhimurium", "assay": "Salmonella protein secretion assay", "format": "cell-based", "conditions": "LB + 10 μg/ml protein", "method": "Salmonella protein secretion assay: For each condition, 2 mL of LB was inoculated with overnight cultures 1:30. Protein was added to media at 10 μg/mL and volumes were normalized across all conditions with PBS. Cultures were grown for 4 hours, shaking at 37° C., the pelleted at 7000 g for 5 minutes. 1 mL of culture supernatant was precipitated with trichloro acetic acid (TCA) at a final concentration of 10% overnight at 4° C. Precipitated proteins were pelleted at 20,800 g for 30 minutes, rinsed 2 times in acetone, then air-dried. Proteins were then separated by SDS-PAGE and visualized by Coomassie staining."}}, "note": "“Also recorded” adds a separate entry of the source."}
{"molecule": "N-acetylmuramic acid-L-alanine [MurNAc-L-Ala]", "values": [{"measurement": "Inhibition of S. Typhimurium pathogenesis (C. elegans survival)", "setting": "[1]", "value": "can inhibit S. Typhimurium pathogenesis; also recorded: sufficient to inhibit S. Typhimurium pathogenesis"}, {"measurement": "Inhibition of S. Typhimurium pathogenesis (survival) in tol-1(nr2033) animals", "setting": "[1]", "value": "not protective"}, {"measurement": "Inhibition of S. Typhimurium pathogenesis (survival) in tol-1(nr2033) animals", "setting": "[1]; listed as MurNAc-Ala", "value": "do not inhibit S. Typhimurium pathogenesis"}]}
{"molecule": "CC(=O)N[C@H]1C(O)O[C@H](CO)[C@@H](O)[C@@H]1O[C@H](C)C(=O)O", "note": "(some centres unmarked) [MurNAc]", "values": [{"measurement": "Protection of antibiotic-treatment mice from S. Typhimurium pathogenesis", "setting": "[2]", "value": "insufficient to protect antibiotic-treatment mice from S. Typhimurium pathogenesis"}, {"measurement": "Inhibition of S. Typhimurium pathogenesis (C. elegans survival)", "setting": "[1]", "value": "can inhibit S. Typhimurium pathogenesis; also recorded: sufficient to inhibit S. Typhimurium pathogenesis"}, {"measurement": "Inhibition of S. Typhimurium pathogenesis (survival) in tol-1(nr2033) animals", "setting": "[1]", "value": "do not inhibit S. Typhimurium pathogenesis; also recorded: not protective"}]}
{"molecule": "CC(=O)N[C@H]1C(O)O[C@H](CO)[C@@H](O)[C@@H]1O[C@H](C)C(=O)N[C@@H](C)C(=O)N[C@H](CCC(=O)O)C(=O)O", "note": "(stereo partly drawn) [MDP, MurNAc-L-Ala-D-Glu]", "values": [{"measurement": "Inhibition of S. Typhimurium pathogenesis (C. elegans survival)", "setting": "[1]", "value": "not protective; also recorded: did not inhibit S. Typhimurium pathogenesis"}]}
{"molecule": "CC(=O)N[C@H]1C(O)O[C@H](CO)[C@@H](O)[C@@H]1O", "note": "(some centres unmarked) [GlcNAc, N-acetylglucosamine]", "values": [{"measurement": "Inhibition of S. Typhimurium pathogenesis (C. elegans survival)", "setting": "[1]", "value": "not protective; also recorded: did not inhibit S. Typhimurium pathogenesis"}]}
{"molecule": "B1", "values": [{"measurement": "Effect on growth rate of E. coli in culture", "setting": "[3]", "value": "no effect on the growth rate of E. coli"}, {"measurement": "Effect on growth rate of S. Typhimurium in culture", "setting": "[4]", "value": "no effect on the growth rate of S. Typhimurium"}, {"measurement": "E. coli cell lysis (culture optical density) on induced expression", "setting": "[5]", "value": "decrease in culture optical density"}, {"measurement": "Peptidoglycan cleavage product (ANTS visualization)", "setting": "[6]", "value": "yielded a unique peptidoglycan cleavage product with similar mobility to MurNAc-L-Ala"}, {"measurement": "S. Typhimurium colonization of C. elegans (imaging and CFU)", "setting": "[7]", "value": "does not affect S. Typhimurium colonization of C. elegans"}, {"measurement": "Inhibition of S. Typhimurium pathogenesis (C. elegans survival)", "setting": "[1]", "value": "inhibits S. Typhimurium pathogenesis"}, {"measurement": "Inhibition of S. Typhimurium pathogenesis (C. elegans survival)", "setting": "[1]; listed as SagA-His6", "value": "sufficient to inhibit S. Typhimurium pathogenesis"}, {"measurement": "Effect on secretion of S. Typhimurium type III protein effectors (SPI-1) in culture", "setting": "[8]", "value": "does not affect SPI-1 secretion in culture"}, {"measurement": "Effect on secretion of S. Typhimurium type III protein effectors (SPI-1) in culture", "setting": "[8]; listed as recombinant SagA", "value": "no effect"}]}
